Test [1] concerns the target T1, human MerTK on M2c-differentiated human macrophages (human, UniProt Q12866 21-999).
T1 construct: Endogenous MerTK on primary macrophages differentiated from human monocytes with M-CSF
T1 sequence: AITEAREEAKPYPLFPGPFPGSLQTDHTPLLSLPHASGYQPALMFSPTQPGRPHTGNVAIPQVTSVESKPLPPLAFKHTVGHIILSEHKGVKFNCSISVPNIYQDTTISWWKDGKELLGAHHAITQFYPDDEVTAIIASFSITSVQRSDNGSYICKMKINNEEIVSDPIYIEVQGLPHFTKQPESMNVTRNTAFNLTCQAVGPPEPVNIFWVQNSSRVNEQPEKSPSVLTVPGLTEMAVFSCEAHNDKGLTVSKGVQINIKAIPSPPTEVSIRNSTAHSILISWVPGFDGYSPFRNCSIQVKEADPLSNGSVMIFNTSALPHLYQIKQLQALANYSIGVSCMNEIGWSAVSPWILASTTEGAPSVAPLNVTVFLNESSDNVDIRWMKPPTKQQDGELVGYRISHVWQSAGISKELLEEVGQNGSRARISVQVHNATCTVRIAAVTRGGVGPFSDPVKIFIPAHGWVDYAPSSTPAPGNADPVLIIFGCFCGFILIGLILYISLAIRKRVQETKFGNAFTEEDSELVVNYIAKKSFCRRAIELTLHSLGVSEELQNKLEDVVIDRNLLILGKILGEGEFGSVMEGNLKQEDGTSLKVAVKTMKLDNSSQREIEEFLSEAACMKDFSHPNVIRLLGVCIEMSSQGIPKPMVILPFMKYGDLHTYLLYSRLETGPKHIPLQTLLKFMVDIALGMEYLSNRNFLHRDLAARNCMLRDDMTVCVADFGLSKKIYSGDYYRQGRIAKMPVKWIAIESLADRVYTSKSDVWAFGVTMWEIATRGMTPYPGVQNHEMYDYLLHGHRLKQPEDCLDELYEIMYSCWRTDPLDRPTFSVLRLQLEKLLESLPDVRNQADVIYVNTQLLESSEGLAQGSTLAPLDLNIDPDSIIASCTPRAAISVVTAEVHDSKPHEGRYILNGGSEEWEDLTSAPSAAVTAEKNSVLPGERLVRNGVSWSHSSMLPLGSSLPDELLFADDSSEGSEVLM
In words: FACS, Dylight650-conjugated antibody titrated on M2c-differentiated human macrophages; Kd fitted in Prism from MFI.
Excerpt: (§1) Human macrophages were differentiated from human monocytes for 7 days in the presence of human M-CSF, resulting in M2c-differentiated human macrophages. After 7 days, the differentiated human macrophages were harvested (by scraping), resuspended in PBS, and plated on 96-well plates for use. CHO cells overexpressing human MerTK (CHO-huMerTK OE) or M2c-differentiated human macrophages were stained with Dylight650-conjugated monovalent anti-MerTK antibodies or bivalent anti-MerTK antibodies (i.e., anti-MerTK antibodies comprising two full-length heavy chains and two full-length light chains) for 30 min on ice. A range of antibody concentrations were used in these studies to obtain binding curves. […] Cells were fixed and then acquired on a BD FACS Canto II cytometer. The mean fluorescence intensity (MFI) was calculated using FlowJo software and Kd value was calculated using Prism software.

Test [2] deals with T2, recombinant human MerTK extracellular domain (human, UniProt Q12866 21-505).
T2 construct: The entry starts with the native signal peptide, while the construct used a heterologous signal peptide; also called huMerTK; human MerTK ECD; not shown: tag
T2 sequence: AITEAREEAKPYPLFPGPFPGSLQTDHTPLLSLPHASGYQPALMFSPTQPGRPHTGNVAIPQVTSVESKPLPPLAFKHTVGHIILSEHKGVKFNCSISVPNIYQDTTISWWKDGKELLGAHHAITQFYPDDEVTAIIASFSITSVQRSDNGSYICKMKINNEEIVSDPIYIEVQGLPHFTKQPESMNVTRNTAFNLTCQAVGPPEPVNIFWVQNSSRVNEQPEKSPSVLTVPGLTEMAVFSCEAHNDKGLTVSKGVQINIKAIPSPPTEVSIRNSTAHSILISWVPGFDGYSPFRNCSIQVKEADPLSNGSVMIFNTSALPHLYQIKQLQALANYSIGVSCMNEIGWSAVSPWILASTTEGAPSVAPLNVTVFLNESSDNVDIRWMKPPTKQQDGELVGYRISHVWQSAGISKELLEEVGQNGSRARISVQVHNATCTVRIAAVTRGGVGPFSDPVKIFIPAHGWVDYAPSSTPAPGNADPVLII
In words: SPR (Carterra LSA), antibody immobilised on an HC30 chip, MerTK ECD as analyte; estimate from a 1:1 fit.

Test [3] concerns the target T3, recombinant cynomolgus MerTK extracellular domain (cynomolgus, UniProt Q12866 21-505 (human entry)).
T3 construct: The entry starts with the native signal peptide; also called cynoMerTK; cyno MerTK ECD; not shown: tag
T3 chain: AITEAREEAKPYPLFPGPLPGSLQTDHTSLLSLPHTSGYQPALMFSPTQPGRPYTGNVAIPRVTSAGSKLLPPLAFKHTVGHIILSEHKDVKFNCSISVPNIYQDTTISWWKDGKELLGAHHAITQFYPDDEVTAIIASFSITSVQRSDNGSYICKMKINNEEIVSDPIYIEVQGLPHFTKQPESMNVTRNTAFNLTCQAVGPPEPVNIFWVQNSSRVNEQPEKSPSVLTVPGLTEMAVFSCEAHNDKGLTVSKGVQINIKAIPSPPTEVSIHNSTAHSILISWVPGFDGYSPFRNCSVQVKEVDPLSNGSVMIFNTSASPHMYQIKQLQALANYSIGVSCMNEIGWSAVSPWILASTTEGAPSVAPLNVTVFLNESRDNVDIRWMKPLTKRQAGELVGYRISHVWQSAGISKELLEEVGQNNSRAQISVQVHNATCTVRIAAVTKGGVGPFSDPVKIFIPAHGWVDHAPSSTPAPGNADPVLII
The test is described as above.

The target of test [4] is T4, human MerTK overexpressed on CHO cells (CHO-huMerTK OE) (human, UniProt Q12866 21-999).
T4 construct: also called human MerTK overexpressing CHO cells; not shown: mGFP tag of the lentiviral ORF clone
T4 sequence: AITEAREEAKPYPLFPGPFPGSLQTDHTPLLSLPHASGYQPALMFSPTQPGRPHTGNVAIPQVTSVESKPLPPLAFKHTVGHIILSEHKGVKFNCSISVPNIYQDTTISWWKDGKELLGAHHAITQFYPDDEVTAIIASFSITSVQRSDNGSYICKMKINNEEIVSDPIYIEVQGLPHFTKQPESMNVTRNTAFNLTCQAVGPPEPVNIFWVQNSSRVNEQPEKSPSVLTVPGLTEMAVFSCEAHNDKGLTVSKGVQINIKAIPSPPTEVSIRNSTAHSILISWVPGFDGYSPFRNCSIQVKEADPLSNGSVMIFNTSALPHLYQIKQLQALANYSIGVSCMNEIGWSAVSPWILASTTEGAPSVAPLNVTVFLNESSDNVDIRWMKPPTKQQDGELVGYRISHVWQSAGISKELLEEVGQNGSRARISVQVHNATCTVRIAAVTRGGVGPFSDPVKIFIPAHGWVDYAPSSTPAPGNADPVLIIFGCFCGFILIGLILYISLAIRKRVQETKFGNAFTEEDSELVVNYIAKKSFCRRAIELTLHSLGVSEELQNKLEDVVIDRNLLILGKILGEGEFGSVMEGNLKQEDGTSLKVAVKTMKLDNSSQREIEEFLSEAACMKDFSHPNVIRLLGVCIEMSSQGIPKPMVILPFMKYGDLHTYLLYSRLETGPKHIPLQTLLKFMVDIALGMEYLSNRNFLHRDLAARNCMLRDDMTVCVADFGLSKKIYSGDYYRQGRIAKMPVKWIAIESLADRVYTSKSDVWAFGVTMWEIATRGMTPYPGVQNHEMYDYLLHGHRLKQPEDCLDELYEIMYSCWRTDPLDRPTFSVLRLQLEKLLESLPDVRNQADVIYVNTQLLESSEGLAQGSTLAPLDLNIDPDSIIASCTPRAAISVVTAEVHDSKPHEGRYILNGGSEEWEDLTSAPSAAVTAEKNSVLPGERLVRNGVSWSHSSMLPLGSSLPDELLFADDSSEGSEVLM
In words: FACS, Dylight650-conjugated antibody on CHO-huMerTK OE cells, MFI against Ab concentration. (In general: In flow cytometry, cells or beads pass a laser one at a time.)

The target in test [5] is T1, human MerTK on M2c-differentiated human …. In words: cell-based or functional assay.
Test [6] has the same target. In words: cell-based or functional assay. The source holds these as a separate data set.
Test [7] has as its target T4, human MerTK overexpressed on CHO cells …. Briefly: FACS, Dylight650-conjugated antibody titrated on CHO-huMerTK OE cells; Kd fitted in Prism from MFI.
Excerpt: as §1
In test [8] the target is T5, recombinant murine MerTK extracellular domain (mouse, UniProt Q60805 19-497).
T5 construct: The entry starts with the native signal peptide; also called moMerTK; murine MerTK ECD; not shown: tag
T5 sequence: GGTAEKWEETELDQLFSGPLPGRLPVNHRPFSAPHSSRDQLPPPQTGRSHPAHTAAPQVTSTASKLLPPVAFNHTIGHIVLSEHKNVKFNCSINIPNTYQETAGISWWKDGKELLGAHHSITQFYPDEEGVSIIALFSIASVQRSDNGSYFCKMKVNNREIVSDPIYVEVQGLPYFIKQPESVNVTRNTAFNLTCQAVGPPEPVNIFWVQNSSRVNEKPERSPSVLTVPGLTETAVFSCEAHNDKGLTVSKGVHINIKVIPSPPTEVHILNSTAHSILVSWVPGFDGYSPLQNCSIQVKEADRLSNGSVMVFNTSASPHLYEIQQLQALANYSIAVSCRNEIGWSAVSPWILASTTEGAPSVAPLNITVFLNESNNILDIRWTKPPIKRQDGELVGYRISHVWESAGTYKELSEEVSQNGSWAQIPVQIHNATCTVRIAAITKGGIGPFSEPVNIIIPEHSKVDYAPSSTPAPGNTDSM
Briefly: SPR (Carterra LSA), antibody immobilised on an HC30 chip, MerTK ECD as analyte.

Test [9] deals with T1, human MerTK on M2c-differentiated human …. In words: cell-based or functional assay. The source holds these as a separate data set.
The target in test [10] is T5, recombinant murine MerTK extracellular …. Briefly: SPR (Carterra LSA), antibody immobilised on an HC30 chip, MerTK ECD as analyte; estimate from a 1:1 fit.
Description: Binding kinetics of monovalent anti-MerTK antibodies of the present disclosure to human, cyno, and murine MerTK were evaluated using a Carterra LSA instrument. […] A HC30 sensor chip (Carterra) was activated using the single channel flow cell with a 7-minute injection of a 1:1:1 mixture of 100 mM MES pH 5.5, 100 mM sulfo-NHS, 400 mM EDC (all reconstituted in MES pH 5.5; 100 μl of each mixed in vial immediately before running assay). After switching to the multi-channel array flow cell, the antibodies were injected over the activated chip in a 96-spot array for 15 minutes. A duplicate injection of the antibodies on a second block of the chip was spotted as before. The remaining unconjugated active groups on the chip were then blocked by injecting 1M Ethanolamine pH 8.5 (Carterra) for 7 minutes using the single channel flow cell.
After priming with running buffer (HBS-TE, Carterra) with 0.5 mg/ml BSA (Sigma), the immobilized anti-MerTK antibodies were tested for their ability to bind to several forms of recombinant MerTK extracellular domain, including that of human, cynomolgus, and mouse orthologs as described above. Estimates of affinity were generated by injecting each analyte over the entire antibody array using the single channel flow cell. […] Dissociation was followed for 300 seconds before regenerating after each injection with 2×30 seconds of 10 mM Glycine pH2.5. Three buffer blanks were run between each series (one species per series). After all concentrations of all three species of MerTK were injected, a duplicate set of injections was performed, so that each concentration for all three species was injected in widely spaced duplicates. Data were processed and analyzed using NextGenKIT high-throughput kinetics analysis software (Carterra).
The target in test [11] is T4, human MerTK overexpressed on CHO cells …. Briefly: FACS on CHO-huMerTK OE cells; reference is monovalent MTK-33.11.
Excerpt: as §1
Test [12] addresses T1, human MerTK on M2c-differentiated human …. In words: FACS on M2c-differentiated human macrophages; reference is monovalent MTK-33.11.
Excerpt: as §1

B1: bivalent anti-MerTK antibody MTK-16.2 LALAPS (antibody, human IgG1, kappa, L234A L235A, V domains shown)
VH: QVQLVQSGSELKKPGASVKVSCKASGYTFTNHGMNWVRQAPGQGLEWMGWINTYTGEPTYADDFKGRFVFSLDTSVSTAYLQISSLKAEDTAVYYCARKGVTAARYFDYWGQGTLVTVSS
VL: DIQMTQSPSSLSASVGDRVTITCRASQNVRTAVAWYQQKPGKAPKRLIYLASNRHTGVPSRFSGSGSGTEFTLTISNLQPEDFATYYCLQHWNYPLTFGGGTKLEIKR
notes: Two full-length heavy chains and two full-length light chains, human IgG1 LALAPS; Dylight650-conjugated in the FACS assay; also called MTK-16.2 bivalent LALAPS; MTK-16.2 full IgG
By Kd is commonly meant a measure of binding affinity in units of concentration. For orientation: EC50 (read off the curve) means the concentration needed to bring the measured effect to its halfway point. A low value points to an effect from little substance. As to B1, the Kd was 51.9 nM in test [1], 50 nM in test [2], 60 nM in test [3] and 42.5 nM in test [7]. Also, in test [4], the “EC50 (read off the curve)” value was around 20 nM. In test [5], the “Average fold change in pAKT activity in the absence of huGas6” value (from here on “Average fold change in pAKT activity”) is 1.57 fold. In addition, in test [6], the “Average pAKT IC50 (nM) in the presence of huGas6” value (shortened to “Average pAKT IC50 (nM)”) was 3.22 nM. For the same molecule, the binding result in [8] is on record as “no binding”. Besides, in [9], the “Efferocytosis blocking Average IC50” value came to 0.436 nM.

B2: monovalent anti-MerTK antibody MTK-16.2 LALAPS (antibody, human IgG1, kappa, L234A L235A)
heavy: not shown
light: DIQMTQSPSSLSASVGDRVTITCRASQNVRTAVAWYQQKPGKAPKRLIYLASNRHTGVPSRFSGSGSGTEFTLTISNLQPEDFATYYCLQHWNYPLTFGGGTKLEIKRTVAAPSVFIFPPSDEQLKSGTASVVCLLNNFYPREAKVQWKVDNALQSGNSQESVTEQDSKDSTYSLSSTLTLSKADYEKHKVYACEVTHQGLSSPVTKSFNRGEC
chain: DKTHTCPPCPAPEAAGGPSVFLFPPKPKDTLMISRTPEVTCVVVDVSHEDPEVKFNWYVDGVEVHNAKTKPREEQYNSTYRVVSVLTVLHQDWLNGKEYKCKVSNKALPASIEKTISKAKGQPREPQVYTLPPSRDELTKNQVSLSCAVKGFYPSDIAVEWESNGQPENNYKTTPPVLDSDGSFFLVSKLTVDKSRWQQGNVFSCSVMHEALHNHYTQKSLSLSPGK
notes: One-armed antibody, human IgG1 LALAPS; Dylight650-conjugated in the FACS assay; also called MTK-16.2 monovalent LALAPS; MTK-16.2 monoarm
Regarding B2, the equilibrium dissociation constant (Kd) in test [1] was 77.8 nM; in test [2], 50 nM; in test [3], 60 nM; in [7], 40.5 nM. Also, in [5], the “Average fold change in pAKT activity” value stood at 1.22 fold. In [6], the “Average pAKT IC50 (nM)” value came out at 15.3 nM. The binding result in [8] was “no binding”. For the same molecule, the “Efferocytosis blocking Average IC50” value in [9] stood at 37.9 nM.

B3: bivalent anti-MerTK antibody MTK-33.11 LALAPS (antibody, human IgG1, kappa, L234A L235A, V domains shown)
VH: QVQLVQSGAEVKKPGASVKVSCKASGYTFTSYWMHWVRQAPGQGLEWIGVIDPSDNYINYNQKFQGRVTMTRDTSTSTVYMELSSLRSEDTAVYYCAREAWTRGYFDYWGQGTLVTVSS
VL: DIQMTQSPSSLSASVGDRVTITCQASRSVRNTVAWYQQKPGKAPKLLIYYASNRYTGVPSRFSGSGSGTDFTFTISSLQPEDIATYYCQQDYRSPFTFGQGTKLEIKR
notes: Two full-length heavy chains and two full-length light chains, human IgG1 LALAPS; Dylight650-conjugated in the FACS assay; also called MTK-33.11 bivalent LALAPS; MTK-33.11 full IgG
As for B3, the Kd in test [1] was 2 nM; in test [10] it was 50 nM; in [2] it was 2 nM; in test [3] it was 2 nM; in [7] it was 0.439 nM. Further, the results for the “fold higher affinity than monovalent MTK-33.11” value in [11] and in test [12] were around 10 fold and around 5 fold, respectively. Further, the 50% effective concentration (EC50 (read off the curve)) in test [4] is around 4 nM. Moreover, the “Average fold change in pAKT activity” value in test [5] amounted to 1.41 fold. Also, in [6], the “Average pAKT IC50 (nM)” value was 1.25 nM. Besides, the “Efferocytosis blocking Average IC50” value in test [9] stood at 0.341 nM.
